Key:
USP10 S76 peptide = test system: T1, USP10 S76 peptide
T1 sequence: TLPRTPSYSISST

Substance	initial rate of phosphorylation (in vitro kinase assay, 32P incorporation) (USP10 S76 peptide)	maximal stoichiometry of phosphorylation (USP10 S76 peptide)	initial rate of phosphorylation (in vitro kinase assay, 32P incorporation) (SAMS peptide (Abcam))	maximal stoichiometry of phosphorylation (SAMS peptide (Abcam))	in vitro deubiquitination assay, immunoblot (FIG. 3H) (Ubiquitinated AMPKα2)	in vitro deubiquitination assay, immunoblot (FIG. 4C) (Ubiquitinated AMPKα1)
Purified AMPK (Upstate Biotechnology)	155±36 pmol/min/reaction mix	0.46±0.04 mol/mol	95±18 pmol/min/reaction mix	0.35±0.02 mol/mol		
USP10CA (catalytically inactive CA mutant, recombinant)					the catalytically inactive CA mutant could not	the catalytically inactive CA mutant could not

Reference: patent publication US20190030139
